# Data taken from article PMC5638340.
# Columns and labels:
# [1] = target: Acetylcholine binding protein (AChBP) from Lymnaea stagnalis (L. stagnalis) (UniProt P58154); assay: SPR
# [2] = target: Acetylcholine binding protein (AChBP) from Lymnaea stagnalis (L. stagnalis) (UniProt P58154); assay: radioligand binding
# [3] = target: Human α7 nAChR expressed in GH4C1 cells (human) (UniProt P36544); assay: radioligand binding
# [4] = target: Muscle-type nAChR of Torpedo californica electric organ (Torpedo californica); assay: radioligand binding
# Muscle-type nAChR of Torpedo californica electric organ (Torpedo californica), sequence (P02710 25-461, chain 1 of 4): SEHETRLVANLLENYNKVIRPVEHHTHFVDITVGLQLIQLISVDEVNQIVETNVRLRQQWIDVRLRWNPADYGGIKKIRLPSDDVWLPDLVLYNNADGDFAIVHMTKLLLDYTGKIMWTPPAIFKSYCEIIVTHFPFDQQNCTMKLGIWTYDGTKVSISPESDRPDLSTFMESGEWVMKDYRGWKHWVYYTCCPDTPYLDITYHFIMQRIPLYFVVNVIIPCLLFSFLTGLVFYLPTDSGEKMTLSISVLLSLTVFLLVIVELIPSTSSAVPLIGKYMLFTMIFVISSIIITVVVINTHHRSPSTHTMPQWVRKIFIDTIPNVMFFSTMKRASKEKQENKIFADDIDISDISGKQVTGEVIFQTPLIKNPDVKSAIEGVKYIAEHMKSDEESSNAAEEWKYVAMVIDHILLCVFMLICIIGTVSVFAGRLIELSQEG
# Muscle-type nAChR of Torpedo californica electric organ (Torpedo californica), sequence (P02712 25-493, chain 2 of 4, further chain): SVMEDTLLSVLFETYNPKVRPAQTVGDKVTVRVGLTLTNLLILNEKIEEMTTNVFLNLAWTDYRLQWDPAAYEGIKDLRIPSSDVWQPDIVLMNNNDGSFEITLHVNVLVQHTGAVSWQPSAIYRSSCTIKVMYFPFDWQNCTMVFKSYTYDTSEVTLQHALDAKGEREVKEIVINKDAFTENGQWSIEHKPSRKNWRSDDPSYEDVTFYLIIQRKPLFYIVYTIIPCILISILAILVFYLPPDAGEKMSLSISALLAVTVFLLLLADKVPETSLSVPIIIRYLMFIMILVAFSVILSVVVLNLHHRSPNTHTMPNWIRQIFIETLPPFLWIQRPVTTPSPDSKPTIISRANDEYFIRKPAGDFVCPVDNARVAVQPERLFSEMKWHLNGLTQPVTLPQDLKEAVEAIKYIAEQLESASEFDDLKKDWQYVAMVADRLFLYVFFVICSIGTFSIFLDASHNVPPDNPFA
# Muscle-type nAChR of Torpedo californica electric organ (Torpedo californica), sequence (P02714 18-506, chain 3 of 4, further chain): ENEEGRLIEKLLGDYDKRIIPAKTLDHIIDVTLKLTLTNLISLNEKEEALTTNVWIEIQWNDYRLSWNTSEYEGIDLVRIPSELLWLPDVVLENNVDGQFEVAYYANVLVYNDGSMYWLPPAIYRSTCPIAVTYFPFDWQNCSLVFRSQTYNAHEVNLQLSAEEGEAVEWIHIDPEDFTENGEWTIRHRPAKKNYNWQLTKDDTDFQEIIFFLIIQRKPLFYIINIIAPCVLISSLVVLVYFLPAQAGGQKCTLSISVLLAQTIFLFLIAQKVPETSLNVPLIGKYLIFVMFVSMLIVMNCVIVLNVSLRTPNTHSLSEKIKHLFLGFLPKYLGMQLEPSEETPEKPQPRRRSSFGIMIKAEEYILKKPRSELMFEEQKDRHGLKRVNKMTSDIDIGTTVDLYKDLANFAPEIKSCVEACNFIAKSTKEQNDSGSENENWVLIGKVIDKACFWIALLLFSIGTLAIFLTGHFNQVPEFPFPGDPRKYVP
# Muscle-type nAChR of Torpedo californica electric organ (Torpedo californica), sequence (P02718 22-522, chain 4 of 4, further chain): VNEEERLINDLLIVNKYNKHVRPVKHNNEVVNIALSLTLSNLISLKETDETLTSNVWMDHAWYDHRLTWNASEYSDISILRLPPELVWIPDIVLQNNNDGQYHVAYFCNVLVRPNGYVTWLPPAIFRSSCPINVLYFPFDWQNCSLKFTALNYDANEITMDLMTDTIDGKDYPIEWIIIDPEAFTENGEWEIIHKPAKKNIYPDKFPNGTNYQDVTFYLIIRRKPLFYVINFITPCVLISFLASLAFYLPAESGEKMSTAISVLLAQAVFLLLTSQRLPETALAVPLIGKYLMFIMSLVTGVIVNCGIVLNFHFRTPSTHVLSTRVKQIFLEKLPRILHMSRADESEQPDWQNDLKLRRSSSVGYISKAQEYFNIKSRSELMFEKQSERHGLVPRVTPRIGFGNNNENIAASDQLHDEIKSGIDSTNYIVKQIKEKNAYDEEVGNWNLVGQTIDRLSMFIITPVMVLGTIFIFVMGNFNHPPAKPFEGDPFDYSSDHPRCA
# Acetylcholine binding protein (AChBP) from Lymnaea stagnalis (L. stagnalis), sequence (P58154 20-229): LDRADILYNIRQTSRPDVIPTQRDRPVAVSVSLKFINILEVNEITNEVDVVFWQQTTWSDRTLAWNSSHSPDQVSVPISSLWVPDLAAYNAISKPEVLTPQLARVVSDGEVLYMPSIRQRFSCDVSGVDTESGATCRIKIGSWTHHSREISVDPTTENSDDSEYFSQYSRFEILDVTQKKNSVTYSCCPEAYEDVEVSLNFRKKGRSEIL
# Human α7 nAChR expressed in GH4C1 cells (human), sequence (P36544 23-502): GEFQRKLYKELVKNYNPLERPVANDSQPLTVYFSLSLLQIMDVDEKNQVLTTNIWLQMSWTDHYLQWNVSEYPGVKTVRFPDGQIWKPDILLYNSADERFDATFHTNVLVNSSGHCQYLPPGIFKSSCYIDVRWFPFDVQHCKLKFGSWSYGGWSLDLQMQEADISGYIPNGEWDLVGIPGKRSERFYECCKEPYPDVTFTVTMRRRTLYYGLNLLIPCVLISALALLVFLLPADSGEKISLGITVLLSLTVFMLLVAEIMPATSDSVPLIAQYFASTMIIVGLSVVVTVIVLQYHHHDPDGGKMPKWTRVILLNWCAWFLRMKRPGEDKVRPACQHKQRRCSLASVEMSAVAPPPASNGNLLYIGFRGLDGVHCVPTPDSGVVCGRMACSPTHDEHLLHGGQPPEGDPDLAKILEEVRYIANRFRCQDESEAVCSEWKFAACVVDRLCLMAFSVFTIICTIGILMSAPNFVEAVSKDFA
substance,measurement,setting,value
Crotoxin from Crotalus durissus terrificus venom (complex),Kd,[1],120 nM
same,IC50,[2],640 nM
same,"IC50, high affinity site (two-site model)",[3],4.9 nM
same,"IC50, low affinity site (two-site model)",[3],15 µM
same,"IC50, high affinity site (two-site model)",[4],30 nM
same,"IC50, low affinity site (two-site model)",[4],260 nM
